Experimental data: the supplement of paper PMC9876800

System: peptide library, one residue held at a place counted from the S/T acceptor
Assay: relative phosphorylation of the sub-library (ratio to the mean residue at this position); higher = residue favoured
Conditions: human
Procedure, shortened: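 Relative sub-library phosphorylation, a ratio to the mean residue at that position, was obtained by phosphorimaging and densitometry of spots on streptavidin membranes. Before capture, purified recombinant kinases were incubated for 90 min under kinase-specific conditions with 50 μM biotinylated degenerate peptide sub-libraries and 50 μM ATP spiked with γ-32P-ATP. Each sub-library fixed one residue at one position around a central Ser/Thr.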

CLK2, construct: aa137-498, sequence (P49760 137-498, looked up): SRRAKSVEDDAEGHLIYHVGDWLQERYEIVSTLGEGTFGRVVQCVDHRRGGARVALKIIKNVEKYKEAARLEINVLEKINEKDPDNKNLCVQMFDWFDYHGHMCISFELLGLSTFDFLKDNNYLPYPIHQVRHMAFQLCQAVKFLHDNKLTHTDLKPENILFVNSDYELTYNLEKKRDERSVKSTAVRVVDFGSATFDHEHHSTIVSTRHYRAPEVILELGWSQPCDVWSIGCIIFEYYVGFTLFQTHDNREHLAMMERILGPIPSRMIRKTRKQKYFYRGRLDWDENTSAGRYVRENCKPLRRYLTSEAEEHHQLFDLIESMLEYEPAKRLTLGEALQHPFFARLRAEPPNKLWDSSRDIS

CLK2, construct: aa137-498 (from UniProt P49760)
relative phosphorylation
Conditions | at +1 | at +2 | at +3 | at +4 | at -1 | at -2 | at -3 | at -4 | at -5
A fixed | 0.537 | 1.38 | 0.558 | 0.879 | 1.16 | 1.94 | 0.571 | 1.2 | 1.14
D fixed | 0.278 | 1.66 | 0.658 | 2.06 | 0.653 | 0.869 | 0.537 | 0.818 | 0.937
E fixed | 1.31 | 2.38 | 0.614 | 2.16 | 0.846 | 1.79 | 0.471 | 0.964 | 0.865
F fixed | 0.258 | 0.524 | 0.357 | 0.734 | 0.316 | 0.239 | 0.223 | 0.547 | 0.929
G fixed | 0.82 | 1.31 | 0.908 | 0.989 | 1.78 | 1.51 | 0.615 | 1.42 | 1.23
H fixed | 0.56 | 0.949 | 0.851 | 0.93 | 0.812 | 0.538 | 0.627 | 0.906 | 1.05
I fixed | 0.388 | 0.352 | 0.246 | 0.491 | 0.194 | 0.159 | 0.176 | 0.441 | 0.412
K fixed | 0.663 | 0.989 | 2.22 | 1.03 | 2.09 | 1.06 | 2.11 | 1.82 | 2.18
L fixed | 0.433 | 0.565 | 0.396 | 0.645 | 0.416 | 0.266 | 0.209 | 0.485 | 0.478
M fixed | 0.872 | 0.633 | 0.332 | 0.764 | 0.614 | 0.328 | 0.277 | 0.707 | 0.54
N fixed | 0.464 | 0.968 | 0.95 | 1.18 | 1.07 | 0.522 | 0.473 | 0.897 | 1.05
P fixed | 7.13 | 1.76 | 2.02 | 0.754 | 2.01 | 0.616 | 0.523 | 1.29 | 0.976
Q fixed | 1.05 | 1.02 | 0.772 | 1.28 | 1.28 | 0.824 | 0.64 | 1.07 | 0.879
R fixed | 0.767 | 1.08 | 5.17 | 1.12 | 2.29 | 5.66 | 8.88 | 2.84 | 2.51
V fixed | 0.804 | 0.483 | 0.322 | 0.695 | 0.465 | 0.2 | 0.222 | 0.521 | 0.604
W fixed | 0.296 | 0.468 | 0.305 | 0.626 | 0.467 | 0.219 | 0.219 | 0.491 | 0.607
Y fixed | 0.367 | 0.468 | 0.314 | 0.668 | 0.543 | 0.266 | 0.23 | 0.582 | 0.614
pThr fixed | 1.28 | 5.19 | 0.962 | 4.17 | 0.539 | 0.556 | 0.521 | 0.958 | 1
pTyr fixed | 1.47 | 1.44 | 1.32 | 1.97 | 2.09 | 0.473 | 0.485 | 1.08 | 1.12
